A word on the IC50: it is the concentration that gives 50% inhibition. Read a high IC50 as weaker potency in that assay.

The values below come from US20040048327A1 (GEORGIA TECH RESEARCH, published 2004).

Numbered stars: 1 amine (or outer) side, 2 acyl side, 3 side chain; on linkers, the order of the positions; unused ones are H or OH. Square brackets hold non-standard residues; d marks the D form. Ends that are not written are not given here. * marks the point of attachment. AAsp = aza-Asp, O=C(N(CC(=O)[*:3])N[*:1])[*:2]; azaAsp = O=C(N(CC(=O)[*:3])N[*:1])[*:2]; PhPr = N-terminal cap as named (PhPr); trans‑EP‑CH2CH2Ph = not defined here; azaAsn = NC(=O)CN(N[*:1])C(=O)[*:2]; Hydrocinnamoyl = O=C(CCc1ccccc1)*; Cbz = O=C(OCc1ccccc1)*; NHBn = c1ccc(CN*)cc1

What all share (test): cell-based or functional assay
Test [1] deals with T1, autolytically stable caspase-1 variant (D381 E) (UniProt P29466 120-404, limits assumed).
T1 sequence (looked up): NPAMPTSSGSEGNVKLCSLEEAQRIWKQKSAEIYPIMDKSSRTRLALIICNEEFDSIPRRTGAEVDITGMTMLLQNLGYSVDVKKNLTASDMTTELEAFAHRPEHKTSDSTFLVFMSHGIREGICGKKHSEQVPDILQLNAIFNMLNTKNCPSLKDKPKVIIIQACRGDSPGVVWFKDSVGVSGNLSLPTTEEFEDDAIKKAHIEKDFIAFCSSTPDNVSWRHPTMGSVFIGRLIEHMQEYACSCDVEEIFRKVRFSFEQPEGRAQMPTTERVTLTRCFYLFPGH

Another test concerns the target T2, caspase-3 (UniProt P42574 29-277, limits assumed).
T2 sequence (looked up): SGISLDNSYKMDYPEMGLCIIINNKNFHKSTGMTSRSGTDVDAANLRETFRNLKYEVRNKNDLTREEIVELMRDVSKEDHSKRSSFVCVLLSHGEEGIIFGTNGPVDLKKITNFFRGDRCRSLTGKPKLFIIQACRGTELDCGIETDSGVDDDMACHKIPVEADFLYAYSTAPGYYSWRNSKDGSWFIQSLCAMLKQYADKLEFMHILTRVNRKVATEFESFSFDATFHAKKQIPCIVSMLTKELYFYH

The target of test [2] is T3, schistosome legumain SmAE (Schistosoma mansoni asparaginyl endopeptidase) (Schistosoma mansoni, UniProt P09841 32-291).
T3 sequence (looked up): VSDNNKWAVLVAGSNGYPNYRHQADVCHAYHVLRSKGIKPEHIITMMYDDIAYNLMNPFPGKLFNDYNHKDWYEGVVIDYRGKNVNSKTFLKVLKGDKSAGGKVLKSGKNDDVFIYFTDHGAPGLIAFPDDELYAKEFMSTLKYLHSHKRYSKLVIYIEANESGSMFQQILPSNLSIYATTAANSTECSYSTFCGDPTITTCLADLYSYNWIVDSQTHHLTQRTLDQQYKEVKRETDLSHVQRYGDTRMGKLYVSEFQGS

B1: Cbz-Asp-Glu-Val-AAsp-(2S, 3S)-EP-COOEt (peptide)
peptide: Cbz-DEVD
modifications: not fully specified (residue 4, C-terminus); printed as Cbz-Asp-Glu-Val-AAsp-(2S, 3S)-EP-COOEt
As to B1, the results for the k2 (in test [1]; with caspase-3) were 11800 M⁻¹ s⁻¹ and 1.07e+06 M⁻¹ s⁻¹, respectively.

B2: Cbz-Val-AAsp-(S, S)-EP-COOH (peptide)
peptide: Cbz-Val-[azaAsp]-{(S,S)‑EP‑COOH}
For B2, the k2 in the test with caspase-3 is 1110 M⁻¹ s⁻¹.

B3: PhPr-Val-Ala-AAsp-(S,S)-EP-CONHCH2CH2Ph (peptide)
peptide: PhPr-Val-Ala-[AAsp]-{(S,S)‑EP‑CONHCH2CH2Ph}
As for B3, the k2 in test [1] was 17200 M⁻¹ s⁻¹; with caspase-3 it was 1110 M⁻¹ s⁻¹.

B4: PhPr-Val-Ala-AAsp-(S,S)-EP-CO-Phe-NH2 (peptide)
peptide: PhPr-Val-Ala-[AAsp]-{(S,S)‑EP‑CO-Phe-NH2}
On to B4, for which the k2 in test [1] came to 32700 M⁻¹ s⁻¹; with caspase-3, 625 M⁻¹ s⁻¹.

B5: PhPr-Val-Ala-AAsp-(R,R)-EP-CONHCH2CH(OH)Ph (peptide)
peptide: Hydrocinnamoyl-Val-Ala-[AAsp]-{(R,R)‑EP‑CONHCH2CH(OH)Ph}
The molecule B5 came in with a k2 in test [1] of 400 M⁻¹ s⁻¹.

B6: Cbz-Ile-Glu-Thr-AAsp-(R, R)-EP-CONHCH2Ph (peptide)
peptide: Cbz-IET[azaAsp]-{(R,R)‑EP‑CONHCH2Ph}
B6: the k2 is 18100 M⁻¹ s⁻¹ in test [1] and 6480 M⁻¹ s⁻¹ with caspase-3.

B7: PhPr-Val-Ala-AAsp-(S,S)-EP-CONHCH2CH3 (peptide)
peptide: Hydrocinnamoyl-Val-Ala-[AAsp]-{(S,S)‑EP‑CONHCH2CH3}
In the test with caspase-3, B7 registered a k2 of 1910 M⁻¹ s⁻¹.

B8: Cbz-Ile-Glu-Thr-AAsp-(2R,3R)-EP-COOEt (peptide)
peptide: Cbz-IET[azaAsp]-{(2R,3R)‑EP‑COOEt}
On to B8, for which the k2 in test [1] was determined as 13300 M⁻¹ s⁻¹; with caspase-3, 2630 M⁻¹ s⁻¹.

B9: Cbz-Asp-Glu-Val-AAsp-(S,S)-EP-CO-Phe-NH2 (peptide)
peptide: Cbz-DEV[azaAsp]-{(S,S)‑EP‑CO-Phe-NH2}
Turning to B9, the k2 in test [1] stood at 9250 M⁻¹ s⁻¹; in the test with caspase-3, 722000 M⁻¹ s⁻¹.

B10: PhPr-Val-Ala-AAsp-trans-EP-CH2CH2Ph (peptide)
peptide: Hydrocinnamoyl-Val-Ala-[AAsp]-{trans‑EP‑CH2CH2Ph}
modifications: reading uncertain; also: printed as PhPr-Val-Ala-AAsp-trans-EP-CH2CH2Ph
The molecule B10 showed a k2 in test [1] of 300 M⁻¹ s⁻¹.

B11: Cbz-Val-AAsp-(trans)-EP-CH2CH2Ph (peptide)
peptide: Cbz-Val-[AAsp]-{(trans)‑EP‑CH2CH2Ph}
For the molecule B11, in the test with caspase-3, the k2 was 310 M⁻¹ s⁻¹.

B12: Cbz-Asp-Glu-Val-AAsp-(2R, 3R)-EP-COOEt (peptide)
peptide: Cbz-DEVD
modifications: not fully specified (residue 4, C-terminus); printed as Cbz-Asp-Glu-Val-AAsp-(2R, 3R)-EP-COOEt
B12: the figures for the k2 (in test [1]; with caspase-3) were 4320 M⁻¹ s⁻¹ and 464000 M⁻¹ s⁻¹, respectively.

B13: Cbz-Val-AAsp-(S,S)-EP-COOEt (peptide)
peptide: Cbz-Val-[azaAsp]-{(S,S)‑EP‑COOEt}
Regarding B13, the k2 in the test with caspase-3 was 3650 M⁻¹ s⁻¹.

B14: PhPr-Val-Ala-AAsp-(R,R)-EP-CONHCH2Ph (peptide)
peptide: Hydrocinnamoyl-Val-Ala-[AAsp]-{(R,R)‑EP‑CONHCH2Ph}
The molecule B14 showed a k2 in test [1] of 1630 M⁻¹ s⁻¹.

B15: Cbz-Ile-Glu-Thr-AAsp-(R, R)-EP-COOCH2Ph (peptide)
peptide: Cbz-IET[azaAsp]-{(R,R)‑EP‑COOCH2Ph}
Take B15: the k2 in test [1] stood at 13000 M⁻¹ s⁻¹; in the test with caspase-3, 3120 M⁻¹ s⁻¹.

B16: Cbz-Ile-Glu-Thr-AAsp-(S,S)-EP-CO-Ala-NHCH2Ph (peptide)
peptide: Cbz-IET[azaAsp]-{(S,S)‑EP‑CO-Ala-NHBn}
In turn, B16 displayed a k2 with caspase-3 of 3050 M⁻¹ s⁻¹.

B17: Cbz-Asp-Glu-Val-AAsp-(S,S)-EP-CONHCH2Ph (peptide)
peptide: Cbz-DEV[azaAsp]-{(S,S)‑EP‑CONHCH2Ph}
Consider B17, for which the results for the k2 (in test [1]; in the test with caspase-3) were 25400 M⁻¹ s⁻¹ and 1.1e+06 M⁻¹ s⁻¹, respectively.

B18: PhPr-Val-Ala-AAsp-(R,R)-EP-CO-Ala-NHCH2Ph (peptide)
peptide: Hydrocinnamoyl-Val-Ala-[AAsp]-{(R,R)‑EP‑CO-Ala-NHBn}
As to B18, in test [1], the k2 was 268 M⁻¹ s⁻¹.

B19: Cbz-Glu-Val-AAsp-(S,S)-EP-CONHCH2CH2Ph (peptide)
peptide: Cbz-Glu-Val-[azaAsp]-{(S,S)‑EP‑CONHCH2CH2Ph}
In the case of B19, the k2 came out at 41100 M⁻¹ s⁻¹ in test [1] and 27300 M⁻¹ s⁻¹ with caspase-3.

B20: PhPr-Val-Ala-AAsp-(S,S)-EP-CONHCH2Ph (peptide)
peptide: Hydrocinnamoyl-Val-Ala-[AAsp]-{(S,S)‑EP‑CONHCH2Ph}
Regarding B20, the k2 in test [1] was determined as 65900 M⁻¹ s⁻¹; with caspase-3, 1610 M⁻¹ s⁻¹.

B21: Cbz-Val-AAsp-(trans)-EP-Ph-4-Cl (peptide)
peptide: Cbz-Val-[AAsp]-{(trans)‑EP‑Ph‑4‑Cl}
As for B21, the k2 in the test with caspase-3 amounted to 145 M⁻¹ s⁻¹.

B22: PhPr-Val-Ala-AAsp-(2S, 3S)-EP-COOCH2Ph (peptide)
peptide: PhPr-Val-Ala-[AAsp]-{(2S,3S)‑EP‑COOCH2Ph}
For the molecule B22, the k2 turned out to be 52100 M⁻¹ s⁻¹ in test [1] and 1470 M⁻¹ s⁻¹ in the test with caspase-3.

B23: Cbz-Glu-Val-AAsp-(R,R)-EP-CO-Phe-NH2 (peptide)
peptide: Cbz-Glu-Val-[azaAsp]-{(R,R)‑EP‑CO-Phe-NH2}
Take B23: the k2 was 1040 M⁻¹ s⁻¹ in test [1] and 470 M⁻¹ s⁻¹ with caspase-3.

B24: PhPr-Val-Ala-AAsp-(S,S)-EP-COOEt (peptide)
peptide: Hydrocinnamoyl-Val-Ala-[AAsp]-{(S,S)‑EP‑COOEt}
For the molecule B24, the k2 in test [1] was 32200 M⁻¹ s⁻¹; with caspase-3, 1040 M⁻¹ s⁻¹.

B25: PhPr-Val-Ala-AAsp-(S,S)-EP-CONHCH2CH(OH)Ph (peptide)
peptide: PhPr-Val-Ala-[AAsp]-{(S,S)‑EP‑CONHCH2CH(OH)Ph}
Take B25: the results for the k2 (in test [1]; with caspase-3) were 12300 M⁻¹ s⁻¹ and 510 M⁻¹ s⁻¹, respectively.

B26: PhPr-Val-Ala-AAsp-(S,S)-EP-CO-Tyr-NH2 (peptide)
peptide: PhPr-Val-Ala-[AAsp]-{(S,S)‑EP‑CO-Tyr-NH2}
As for B26, the values for the k2 (in test [1]; with caspase-3) were 3240 M⁻¹ s⁻¹ and 87 M⁻¹ s⁻¹, respectively.

B27: PhPr-Val-Ala-AAsp-trans-EP-COOCH2Ph (peptide)
peptide: PhPr-Val-Ala-[AAsp]-{trans‑EP‑COOCH2Ph}
In the case of B27, the k2 turned out to be 18100 M⁻¹ s⁻¹ in test [1] and 680 M⁻¹ s⁻¹ in the test with caspase-3.

B28: Cbz-Ala-Ala-AAsn-(2R, 3R)-EP-COOEt (peptide)
peptide: Cbz-Ala-Ala-[azaAsn]-{(2R,3R)‑EP‑COOEt}
In test [2], B28 displayed an IC50 of 788 nM.

B29: Cbz-Ile-Glu-Thr-AAsp-(2S, 3S)-EP-COOEt (peptide)
peptide: Cbz-IET[azaAsp]-{(2S,3S)‑EP‑COOEt}
In the case of B29, the k2 is 12400 M⁻¹ s⁻¹ in test [1] and 4080 M⁻¹ s⁻¹ with caspase-3.

B30: PhPr-Val-Ala-AAsp-(S,S)-EP-CO-Ala-NHCH2Ph (peptide)
peptide: PhPr-Val-Ala-[AAsp]-{(S,S)‑EP‑CO-Ala-NHBn}
As to B30, the values for the k2 (in test [1]; in the test with caspase-3) were 13400 M⁻¹ s⁻¹ and 260 M⁻¹ s⁻¹, respectively.

B31: Cbz-Asp-Glu-Val-AAsp-(S,S)-EP-COOCH2Ph (peptide)
peptide: Cbz-DEV[azaAsp]-{(S,S)‑EP‑COOCH2Ph}
Turning to B31, the k2 was 54700 M⁻¹ s⁻¹ in test [1] and 1.92e+06 M⁻¹ s⁻¹ with caspase-3.

B32: PhPr-Val-Ala-AAsp-(S,S)-EP-COOCH2CH2Ph (peptide)
peptide: Hydrocinnamoyl-Val-Ala-[AAsp]-{(S,S)‑EP‑COOCH2CH2Ph}
For the molecule B32, the k2 in test [1] was 56600 M⁻¹ s⁻¹; with caspase-3 it was 2110 M⁻¹ s⁻¹.

B33: PhPr-Val-Ala-AAsp-(S,S)-EP-CO-Leu-NH2 (peptide)
peptide: PhPr-Val-Ala-[AAsp]-{(S,S)‑EP‑CO-Leu-NH2}
With B33, the k2 worked out at 26100 M⁻¹ s⁻¹ in test [1] and 420 M⁻¹ s⁻¹ with caspase-3.

B34: PhPr-Val-Ala-AAsp-(R,R)-EP-CONHCH2CH2Ph (peptide)
peptide: Hydrocinnamoyl-Val-Ala-[AAsp]-{(R,R)‑EP‑CONHCH2CH2Ph}
Consider B34, for which the k2 in test [1] was 950 M⁻¹ s⁻¹.

B35: PhPr-Val-Ala-AAsp-(R,R)-EP-CO-Phe-NH2 (peptide)
peptide: Hydrocinnamoyl-Val-Ala-[AAsp]-{(R,R)‑EP‑CO-Phe-NH2}
For the molecule B35, in test [1], the k2 was determined as 330 M⁻¹ s⁻¹.

B36: PhPr-Val-Ala-AAsp-(R,R)-EP-COOEt (peptide)
peptide: Hydrocinnamoyl-Val-Ala-[AAsp]-{(R,R)‑EP‑COOEt}
Regarding B36, the k2 in test [1] turned out to be 6290 M⁻¹ s⁻¹.

B37: PhPr-Val-Ala-AAsp-(2R, 3R)-EP-COOCH2Ph (peptide)
peptide: Hydrocinnamoyl-Val-Ala-[AAsp]-{(2R,3R)‑EP‑COOCH2Ph}
On to B37, for which the k2 in test [1] came to 1860 M⁻¹ s⁻¹.

B38: Cbz-Glu-Val-AAsp-(2S,3S)-EP-COOEt (peptide)
peptide: Cbz-Glu-Val-[azaAsp]-{(2S,3S)‑EP‑COOEt}
Regarding B38, the k2 in test [1] stood at 58500 M⁻¹ s⁻¹; with caspase-3, 50500 M⁻¹ s⁻¹.

B39: Cbz-Ile-Glu-Thr-AAsp-(S,S)-EP-COOCH2Ph (peptide)
peptide: Cbz-IET[azaAsp]-{(S,S)‑EP‑COOCH2Ph}
As for B39, the k2 was found to be 45800 M⁻¹ s⁻¹ in test [1] and 9540 M⁻¹ s⁻¹ with caspase-3.
